Assay results reported in the supplement of paper PMC9170038.

Tested on: MS2 coat protein
Assay: apparent KD of MS2 coat protein; designed switch direction (-1 OFF switch, 1 ON switch): -1; higher = weaker reporter binding
In short: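 Three titration conditions were used: no input, 200 uM small-molecule ligand, and an oligonucleotide input. In each, SNAP-549-labelled MS2 coat protein was raised from 0.7 or 1.5 nM, doubling, to 3 µM over designed RNA switches transcribed on Illumina chips by stalled E. coli RNA polymerase. Curve fits of normalised cluster fluorescence gave values whose per-design median over clusters is the apparent KD.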

[1] = input ligand: microRNA oligo, concentration not stated
[2] = Eterna round: R95, input ligand: microRNA oligo, concentration not stated

Sequence	apparent KD of MS2 coat protein (input ligand: FMN 200 uM)	apparent KD of MS2 coat protein (input ligand: none)	apparent KD of MS2 coat protein [1]	apparent KD of MS2 coat protein (Eterna round: R95, input ligand: FMN 200 uM)	apparent KD of MS2 coat protein [2]	apparent KD of MS2 coat protein (Eterna round: R95, input ligand: none)
GUGGGUUAUGUCAGGAUAUGGCCGUUAGGGCGACGCCAGAAGGGACAUGAGGAUCACCCAUGUCUCCGGGCAUC [BmEX4 C.10] (Eterna round: R97, puzzle: Brourd's mod of Exclusion 4)	15.1 nM	14.8 nM				
GUCAGCUCGUGAGGAUAUAUAUACAUGAGGAUCACCCAUGUAAGAUCAGGCUUCGGCCAAUGUAUAUAGAAGGCACGAGCUGAC [ENG2/11-A1] (Eterna round: R96, puzzle: Exclusion NG 2)	1350 nM	636 nM	1510 nM			
GCAGAAUGAGUUAGGAUAUGAUGAUUUUUCGGAUAUCAGAAGGAACUUGAGGAUCACCCAAGUUAAGAUAGGGU [JR_BMEx4_Sub066] (Eterna round: R97, puzzle: Brourd's mod of Exclusion 4)	258 nM	170 nM				
UAGAAGCUCAGGGAGUGAGACAUGAGGAUCACCCAUGUGGUGGUAGGGAACAAGCUUUUUGCACGUACUUAUGAGGA [JR_SV3TOV1_Sub006] (puzzle: Sensor v3, turn-off variant 1)				367 nM	134 nM	189 nM
CCUUAGUCACAGGAUAUGCUCAUCUAAUGAUGAGCAGAAGGGUGGACAUGAGGAUCACCCAUGUUUAUCAAGGG [Omei Ex6 E2] (Eterna round: R97, puzzle: Exclusion 6)	249 nM	348 nM				
AGAUGCUCAAGUCGACAUGAGGAUCACCCAUGUACAGUUAAUGAGGAUAUCUGAGACAAAUAGUAGGAGAAGGCGUGAACAUGA [Ex NG3 #10] (Eterna round: R96, puzzle: Exclusion NG 3)	55.2 nM	57.6 nM	26.5 nM			
GUACUGACAGGAUAUACAUGAGGAUCACCCAUGUGCCUUAGCGCUACAAAAGUAGCGUGUAGAAGGGUCUGUAC [Omei Ex3 Model Bachelor's Dilema v15] (Eterna round: R97, puzzle: Exclusion 3)	36.8 nM	15.4 nM				
UUUAGUUCAGGAUAUGUAGAUUUUAACAUGAGGAUCACCCAUGUAGAUCCUGAUCCUGCUACAGAAGGGAAGAUUU [Mat - Exclusion 5 - Eli Mod - D7] (Eterna round: R97, puzzle: Exclusion 5)	22.3 nM	23.9 nM				
UUUUUACGAGGAUAUCGUUUUUUUCACAUGAGGAUCACCCAUGUUGUUUAUGUUUCGUUUCGAGAAGGCGUUUGUU [JR_E5_Sub065] (puzzle: Exclusion 5)					26.1 nM	
GGUGAGCUAGGAUAUGCUUUGGGCUCGCAUUCCUUCGAUAAACUUGAGGAUCACCCAAGUAGAAGGAGCUUGCC [salish99_ex2_r4_032] (Eterna round: R97, puzzle: Exclusion 2)	23.3 nM	15.8 nM				
GGUCAUAGGUAAGGAUAUGAAGAUCUGGUGGUGACAUGAGGAUCACCCAUGUGAAAACGAUGAGAUCAGAAGGUACAAUAUGAA [AK ExNG2-4.1] (Eterna round: R96, puzzle: Exclusion NG 2)	72.7 nM	86.4 nM	49.1 nM			
CAAAUGGUUUAAGGAUAUUACAUGAGGAUCACCCAUGUUAUCGGGAUGCUUCUCUUAAAAUACGGUAAGAAGGUAGACCUAAUC [Ceveso] (Eterna round: R96, puzzle: Exclusion NG 2)	451 nM	84.9 nM	91 nM			
GUUGUGUGAGGAUAUGCCUGGCCGUGAGGCCAGAUUGGGUGGCAGAAGGUACAUGAGGAUCACCCAUGUACGGG [salish99_ex4_4_005] (Eterna round: R97, puzzle: Exclusion 4)	47.7 nM	47.5 nM				
CAGCUGAAUGUGAGGAUAUGUCGAGCCUCGGCUCGAUAGAAGGCACAUGAGGAUCACCCAUGUCUCAACAGCUG [BmEx4/2-C2] (Eterna round: R97, puzzle: Brourd's mod of Exclusion 4)	258 nM	34 nM				
